Literature values in PMC3039521.

Target: Abl P-x-L-P-x-K motif (UniProt P00519)

Kd: 1 µM
Substance: Crk SH3N (from UniProt P46108)
